Each block holds one binder with its values, some of them ahead of it.
B4: Dpb2 (S. cerevisiae), subunit of Pol ε (natural protein, Saccharomyces cerevisiae, UniProt P24482 1-689, looked up)
chain: MFGSGNVLPVKIQPPLLRPLAYRVLSRKYGLSIKSDGLSALAEFVGTNIGANWRQGPATIKFLEQFAAVWKQQERGLFIDQSGVKEVIQEMKEREKVEWSHEHPIQHEENILGRTDDDENNSDDEMPIAADSSLQNVSLSSPMRQPTERDEYKQPFKPESSKALDWRDYFKVINASQQQRFSYNPHKMQFIFVPNKKQNGLGGIAGFLPDIEDKVQMFLTRYYLTNDRVMRNENFQNSDMFNPLSSMVSLQNELSNTNRQQQSSSMSITPIKNLLGRDAQNFLLLGLLNKNFKGNWSLEDPSGSVEIDISQTIPTQGHYYVPGCMVLVEGIYYSVGNKFHVTSMTLPPGERREITLETIGNLDLLGIHGISNNNFIARLDKDLKIRLHLLEKELTDHKFVILGANLFLDDLKIMTALSKILQKLNDDPPTLLIWQGSFTSVPVFASMSSRNISSSTQFKNNFDALATLLSRFDNLTENTTMIFIPGPNDLWGSMVSLGASGTLPQDPIPSAFTKKINKVCKNVVWSSNPTRIAYLSQEIVIFRDDLSGRFKRHRLEFPFNESEDVYTENDNMMSKDTDIVPIDELVKEPDQLPQKVQETRKLVKTILDQGHLSPFLDSLRPISWDLDHTLTLCPIPSTMVLCDTTSAQFDLTYNGCKVINPGSFIHNRRARYMEYVPSSKKTIQEEIYI

Columns and labels:
[1] = target: Mcm3 (S. cerevisiae), subunit of CMG (Saccharomyces cerevisiae, UniProt P24279 1-971); test: cross-linking
[2] = target: B4; test: cross-linking
[3] = target: T1, Cdc45 (S. cerevisiae), subunit of CMG (Saccharomyces cerevisiae, UniProt Q08032 1-650); test: cross-linking
T1 sequence (looked up): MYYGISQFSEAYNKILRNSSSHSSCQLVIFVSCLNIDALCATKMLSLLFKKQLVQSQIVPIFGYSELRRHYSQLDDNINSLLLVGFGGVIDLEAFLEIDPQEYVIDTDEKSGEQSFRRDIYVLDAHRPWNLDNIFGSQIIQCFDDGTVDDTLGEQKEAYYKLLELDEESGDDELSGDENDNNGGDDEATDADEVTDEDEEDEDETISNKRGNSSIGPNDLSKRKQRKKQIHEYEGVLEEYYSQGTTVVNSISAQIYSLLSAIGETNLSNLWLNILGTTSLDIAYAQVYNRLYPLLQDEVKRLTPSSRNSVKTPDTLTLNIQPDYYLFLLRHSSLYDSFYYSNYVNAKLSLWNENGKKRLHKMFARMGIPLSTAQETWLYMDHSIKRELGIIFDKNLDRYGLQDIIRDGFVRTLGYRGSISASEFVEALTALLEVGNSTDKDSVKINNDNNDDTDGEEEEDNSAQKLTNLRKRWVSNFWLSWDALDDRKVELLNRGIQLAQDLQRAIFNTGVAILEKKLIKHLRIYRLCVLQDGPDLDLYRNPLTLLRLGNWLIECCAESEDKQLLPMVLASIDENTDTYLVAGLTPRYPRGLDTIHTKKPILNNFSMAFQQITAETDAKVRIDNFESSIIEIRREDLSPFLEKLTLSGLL

[4] = target: CMG helicase (Cdc45-Mcm2-7-GINS, 11 subunits) (Saccharomyces cerevisiae, UniProt P29469;P24279;P30665;P29496;P53091;P38132;Q08032;Q12488;P40359;Q12146;Q03406 …); test: EMSA
[5] = target: T2, Mcm5 (S. cerevisiae), subunit of CMG (Saccharomyces cerevisiae, UniProt P29496 1-775); test: cross-linking
T2 sequence (looked up): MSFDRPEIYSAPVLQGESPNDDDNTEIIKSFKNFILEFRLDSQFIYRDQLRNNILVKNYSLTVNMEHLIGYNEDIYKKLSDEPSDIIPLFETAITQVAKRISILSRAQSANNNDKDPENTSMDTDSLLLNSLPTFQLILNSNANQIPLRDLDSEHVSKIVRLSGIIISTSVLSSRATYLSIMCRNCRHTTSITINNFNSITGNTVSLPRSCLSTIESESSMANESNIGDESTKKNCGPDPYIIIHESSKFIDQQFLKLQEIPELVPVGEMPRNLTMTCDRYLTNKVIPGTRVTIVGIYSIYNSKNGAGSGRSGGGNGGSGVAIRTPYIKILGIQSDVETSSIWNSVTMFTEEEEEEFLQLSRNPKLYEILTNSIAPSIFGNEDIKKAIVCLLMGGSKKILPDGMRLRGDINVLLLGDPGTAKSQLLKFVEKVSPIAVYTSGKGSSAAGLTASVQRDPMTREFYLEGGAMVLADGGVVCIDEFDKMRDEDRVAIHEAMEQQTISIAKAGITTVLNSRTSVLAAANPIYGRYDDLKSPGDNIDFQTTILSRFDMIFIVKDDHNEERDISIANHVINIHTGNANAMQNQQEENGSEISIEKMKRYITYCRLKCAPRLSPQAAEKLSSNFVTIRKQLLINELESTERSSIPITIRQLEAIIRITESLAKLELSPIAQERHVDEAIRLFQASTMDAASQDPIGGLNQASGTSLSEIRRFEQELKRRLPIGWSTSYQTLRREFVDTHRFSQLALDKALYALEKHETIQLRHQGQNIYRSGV

Chain of Mcm3 (S. cerevisiae), subunit of CMG (P24279 whole entry): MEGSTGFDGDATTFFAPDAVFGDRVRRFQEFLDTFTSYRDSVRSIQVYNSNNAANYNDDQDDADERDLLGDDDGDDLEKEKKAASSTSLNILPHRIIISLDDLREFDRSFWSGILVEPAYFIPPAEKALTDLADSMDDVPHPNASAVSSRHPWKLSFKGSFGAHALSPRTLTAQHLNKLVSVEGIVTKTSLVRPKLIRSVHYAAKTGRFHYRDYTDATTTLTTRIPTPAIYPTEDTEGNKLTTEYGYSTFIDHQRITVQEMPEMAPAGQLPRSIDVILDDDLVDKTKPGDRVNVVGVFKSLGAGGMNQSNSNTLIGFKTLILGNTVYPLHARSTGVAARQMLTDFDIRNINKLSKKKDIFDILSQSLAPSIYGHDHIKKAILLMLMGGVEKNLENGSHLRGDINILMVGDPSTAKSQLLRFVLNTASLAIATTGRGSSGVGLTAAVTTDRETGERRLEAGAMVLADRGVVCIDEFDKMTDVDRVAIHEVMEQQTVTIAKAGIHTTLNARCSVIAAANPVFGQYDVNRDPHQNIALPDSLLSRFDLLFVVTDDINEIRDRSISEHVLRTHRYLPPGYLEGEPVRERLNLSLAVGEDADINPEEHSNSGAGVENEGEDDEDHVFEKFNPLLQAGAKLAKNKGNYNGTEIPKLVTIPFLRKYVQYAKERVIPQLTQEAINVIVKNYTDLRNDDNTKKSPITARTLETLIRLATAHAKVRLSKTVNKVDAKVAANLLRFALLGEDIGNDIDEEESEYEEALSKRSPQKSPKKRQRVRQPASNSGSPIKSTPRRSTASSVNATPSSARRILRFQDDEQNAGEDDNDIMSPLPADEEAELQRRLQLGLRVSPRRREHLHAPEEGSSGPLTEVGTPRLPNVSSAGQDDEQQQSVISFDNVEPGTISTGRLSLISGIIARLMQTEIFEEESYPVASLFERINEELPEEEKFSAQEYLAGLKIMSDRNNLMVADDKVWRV

B1: GINS heterotetramer (Psf1, Psf2, Psf3, Sld5) of S. cerevisiae CMG (complex, Saccharomyces cerevisiae)
chain 1: MYGDLGNKLVLEAKRTKQLYARSNQDVNLPMYHEDIIRNILKEVSNLRKNTEYLKEQQQLGMLDDKVAKCQYFVTLLCMERNKRCLLAYQRLRTDILDSMAWNNNGLDLMSSITFSQQDTNNLSHQEQEYLKEYCDLITDLKSGDLVDIDLSGSLVPPSDVFIDVRVLKDAGEIQTEYGVFNLIKDSQFFVRQSDVERLIQQGYLQKI
chain 2: MSLPAHLQQTFSPEEIQFIVENEPIKIFPRITTRQKIRGDDRGTGNHTRWQLITTDDKALNNMVAMRSTEVVLWIALLLKQQSKCSIVAPQWLTTKELDRKIQYEKTHPDRFSELPWNWLVLARILFNKAKDDFHDPIHELRGKIQDLREIRQIKVLKGLKYLNESHLQLDNLSLLEINELRPFITEIMDKLREIHTASLTAGTENDEEEFNI
chain 3: MGYYDIDDVLADGTEFPCKFQYDIPGLGYLENNPGRPITKNTKLSLPLWLARILAIVGGDEALVDEEPVPFVELLPPDMFSTKVMNAIKTDPVALDLHSINSHFFSLAIKWIMLFSEKELANVVSELLLQRAQELNHHASSLSIDLNADSTGKNSANTNIATSTFLLKLEEMEKEIYKKSHESYKDTKRWMFKK
chain 4: MDINIDDILAELDKETTAVDSTKITQGSSSTTHRDANTIVGSSLDLNDKTQIYVSPQQDFSDLMKSWKNERCSPELLPYPHQLMKRLLNRISMQSQLIENISMGFLDMQNASNANPPMPNESKLPLLCMETELERLKFVIRSYIRCRLSKIDKFSLYLRQLNEDENSLISLTDLLSKDEIKYHDTHSLIWLKLVNDSILKYMPEELQAINDTEGSVNMIDEPDWNKFVFIHVNGPPDGKWNEDPLLQENEFGKPCYTVTIPDLKEEVELTIGSIYVMRYEVIRDLLRDDKVALI
binding result [1]: binds

B3: 80/75mer unprimed fork (mixed)
DNA 1: CCCCCACCGATGTGGTAGGAAGTGAGAATTGGAGAGTGTGTTTTTTTTTTTTTTTTTTTTTTTTTTTTTTTTTTTTTTTT
DNA 2: TTTTTTTTTTTTTTTTTTTTTTTTTTTTTTTTTTTTTTTTCACACTCTCCAATTCTCACTTCCTACCACATCGGT
binding result [4]: binds

Binder: B4
binding result [5]: binds

Other lines, results leading:

binding result [2]: binds
binding result [3]: binds
B2: Psf1 (S. cerevisiae), subunit of GINS in CMG (natural protein, Saccharomyces cerevisiae, UniProt Q12488 1-208, looked up)
chain: MYGDLGNKLVLEAKRTKQLYARSNQDVNLPMYHEDIIRNILKEVSNLRKNTEYLKEQQQLGMLDDKVAKCQYFVTLLCMERNKRCLLAYQRLRTDILDSMAWNNNGLDLMSSITFSQQDTNNLSHQEQEYLKEYCDLITDLKSGDLVDIDLSGSLVPPSDVFIDVRVLKDAGEIQTEYGVFNLIKDSQFFVRQSDVERLIQQGYLQKI

binding result [3]: binds
B5: Dpb3 (S. cerevisiae), subunit of Pol ε (natural protein, Saccharomyces cerevisiae, UniProt P27344 1-201, looked up)
chain: MSNLVKEKAPVFPISKVKKIAKCDPEYVITSNVAISATAFAAELFVQNLVEESLVLAQLNSKGKTSLRLSLNSIEECVEKRDNFRFLEDAIKQLKKNSALDKKRELNMQPGRSDQEVVIEEPELHEDDGVEEEEEEDEVSEEEEPVHNEELLDDSKDQQNDKSTRSVASLLSRFQYKSALDVGEHSDSSDIEVDHTKSTDP

binding result [3]: binds
B6: Dpb4 (S. cerevisiae), subunit of Pol ε (natural protein, Saccharomyces cerevisiae, UniProt Q04603 1-196, looked up)
chain: MPPKGWRKDAQGNYPTTSYIKEQENITIQDLLFPKSTIVNLAREVPQQSGKKLLINKDASLALQRGATVFVNHLLLFAREIAKSQDKKSCSVDDVLSALDHIGHSALKGPVRDKLDEYQAAVEQRKKEKLDSGEVDADGDIDMGEDKENVPVEKVKEHDEIEEQGDALQDVEESSEKKQKTESQDVETRVQNLEQT

From paper PMC4849863 (Nature structural & molecular biology, 2015)
